These results are taken from paper PMC4283735.

The target of assay [1] is 30Kc19 C76A protein (Bombyx mori). Briefly: native gel or EMSA. For orientation: In EMSA bound probe runs differently from free probe, usually more slowly.
In assay [2] the target is recombinant 30Kc19 protein (Bombyx mori). Briefly: non-reducing SDS-PAGE.
Assay [3] has the same target. Briefly: native gel or EMSA.
For assay [4] the target is unchanged. Briefly: native gel or EMSA. This is another data set of the same source.
The target is the same in assay [5]. Description: native gel or EMSA. This is another data set of the same source.

As for 30Kc19 C76A protein (natural protein), the stoichiometry N in assay [1] was 2.
Turning to “recombinant 30Kc19 protein (natural protein)”, the stoichiometry N in assay [2], in assay [3], in assay [4] and in assay [5] was 2 each time.

One may read the stoichiometry N as the number of molecules, sites or subunits per partner or assembly.
